Experimental findings from patent publication US20080039402A1 (UNIVERSITE BORDEAUX 2, published 2008) are described below.

Positions of bridges follow the written chain, without caps; N, C: chain ends. Non-standard residues stand in square brackets, D forms with d. No end group written: not given here. βAla = NCCC(=O)O; Sar = CNCC(=O)O

Experiment [1] deals with T1, CD23 (FCεRII) on human CD23+ cells (human, UniProt P06734 1-321).
T1 sequence (looked up): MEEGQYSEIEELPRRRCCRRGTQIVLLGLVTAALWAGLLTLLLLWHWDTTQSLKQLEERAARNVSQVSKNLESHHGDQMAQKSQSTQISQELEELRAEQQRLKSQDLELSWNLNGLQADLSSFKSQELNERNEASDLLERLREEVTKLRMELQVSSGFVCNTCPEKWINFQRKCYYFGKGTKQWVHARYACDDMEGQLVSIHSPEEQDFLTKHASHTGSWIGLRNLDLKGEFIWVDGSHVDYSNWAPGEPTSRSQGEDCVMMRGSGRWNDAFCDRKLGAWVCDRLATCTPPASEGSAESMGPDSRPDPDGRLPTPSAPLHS
In words: cell-based or functional assay.

Experiment [2] addresses T1, CD23 (FCεRII) on human CD23+ cells. In words: cytofluorometry; CD23+ cells pre-incubated with peptide, then CD23-Ab; Experiment 1.
For experiment [3] the target is unchanged. The experiment can be described thus: cytofluorometry; CD23+ cells pre-incubated with peptide, then CD23-Ab; Experiment 2.
The target is the same in experiment [4]. The experiment can be described thus: cytofluorometry; CD23+ cells pre-incubated with peptide, then CD23-Ab; Experiment 3.
Experiment [5] shares this target. The experiment can be described thus: cytofluorometry; CD23+ cells pre-incubated with peptide, then IgE/anti-IgE-FITC; Experiment 1.
The target is the same in experiment [6]. In words: cytofluorometry; CD23+ cells pre-incubated with peptide, then IgE/anti-IgE-FITC; Experiment 2.
The target is the same in experiment [7]. In words: inhibition of anti-CD23-FITC mAb binding to CD23+ cells; Activity grade.

As to Compound 492 (Ac n w CO2H) (peptide), in experiment [1], the % Inhibition (nitrites; inhibition of iNOS production by activated CD23+ macrophages) is 77%. As to “Compound 410 (Ac N W BetaA CO2H) (peptide)”, the % Inhibition (nitrites; inhibition of iNOS production by activated CD23+ macrophages) in experiment [1] is 61%. For the molecule unrelated control peptide (pNu), the TNF-α in supernatant of CD23+ cells, pNu + CD23-Ab, Experiment 1 in experiment [1] stood at 162 pg TNF-α/ml. Moreover, the TNF-α in supernatant of CD23+ cells, pNu + CD23-Ab, Experiment 2 in experiment [1] was determined as 132 pg TNF-α/ml. The [NO2-], macrophages from synovial fluid of Rheumatoid Arthritis patients, pNu + CD23-Ab, Experiment 1 in experiment [1] was found to be 15.2 µM. For the same molecule, in experiment [1], the [NO2-], macrophages from synovial fluid of Rheumatoid Arthritis patients, pNu + CD23-Ab, Experiment 2 came out at 14.4 µM. The % of fluorescence intensity recovered, compared to cells incubated in medium alone was 120% in experiment [2]; 88% in experiment [3]; 94% in experiment [4]; 73% in experiment [5]; 110% in experiment [6]. “Compound 490 (G[allyl-] N W G[allyl-] S) (peptide)” returned a % Inhibition (nitrites; inhibition of iNOS production by activated CD23+ macrophages) in experiment [1] of 81%. Molecule Compound 491 (Ac w n CO2H) (peptide) came in with a % Inhibition (nitrites; inhibition of iNOS production by activated CD23+ macrophages) in experiment [1] of 94%.

For Compound 411 (Ac N W CO2H) (peptide), the % Inhibition (nitrites; inhibition of iNOS production by activated CD23+ macrophages) in experiment [1] is 84%.

With “Compound 489 (NH2 G[allyl-] N W G[allyl-]) (peptide)”, the % Inhibition (nitrites; inhibition of iNOS production by activated CD23+ macrophages) in experiment [1] came to 62%.

B1: Compound 398 (peptide)
peptide: cyclo(HENW[Sar]S)
SMILES: CN1CC(=O)N[C@@H](CO)C(=O)N[C@@H](Cc2c[nH]cn2)C(=O)N[C@@H](CCC(=O)O)C(=O)N[C@@H](CC(N)=O)C(=O)N[C@@H](Cc2c[nH]c3ccccc23)C1=O
In the case of B1, the “% Inhibition (nitrites; inhibition of iNOS production by activated CD23+ macrophages)” value (from here on “% Inhibition”) in experiment [1] was found to be 74%. In the case of Ac-HENWPS-NH2 [Compound 243], in experiment [7], the binding result is “binds”. As for HENAPS [Compound 436], in experiment [1], the “% Inhibition” value worked out at 60%. Turning to HENWKS [Compound 333], the “% Inhibition” value in experiment [1] was 69%. As for HQNWPS-NH2 [Compound 400], in experiment [7], the binding result is recorded as “binds”. For HENWGS (cyclic H2T (N-terminus amino group to C-terminus carboxyl group linkage)) [Compound 299], the “% Inhibition” value in experiment [1] was determined as 74%. Same read-out and setting: the result for HENWES (lactam N-5) [Compound 327] reads 60%.

Turning to RENWPS [Compound 384], the binding result in experiment [7] is recorded as “binds”. On to HEQWPS [Compound 364], for which the binding result in experiment [7] is “binds”.

For FHENW[βAla]S [Compound 328], the “% Inhibition” value in experiment [1] turned out to be 26%. FHENWPT [P30M (F H E N W P T)]: the “% Inhibition” value in experiment [1] turned out to be 76%.

With HPNWRS [Compound 281], in experiment [7], the binding result is given as “binds”. As for FHENWPS [FHENWPS peptide (p30A)], in experiment [1], the “% Inhibition” value was 74%. Take F[βAla]ENWPS [Compound 339]: the binding result in experiment [7] is reported as “binds”.

Turning to FHKPWRA [P30G (F H K P W R A)], the “% Inhibition” value in experiment [1] was determined as 55%.

Turning to HENWP-NH2 [Compound 249], the binding result in experiment [7] is given as “binds”. For the molecule HENWS (cyclic H2T (N-terminus amino group to C-terminus carboxyl group linkage)) [Compound 437], the “% Inhibition” value in experiment [1] was 56%. Consider FHSQWPN [FHSQWPN (p30E)], for which the “% Inhibition” value in experiment [1] worked out at 65%. Turning to FHENWP [P30L (F H E N W P)], in experiment [1], the “% Inhibition” value is 78%. FHEFWPT [FHEFWPT (p30D)]: the “% Inhibition” value in experiment [1] was 68%. As to HENWPSG (cyclic H2T (N-terminus amino group to C-terminus carboxyl group linkage)) [Compound 298], in experiment [7], the binding result is given as “binds”. For HENWPS [P30K (H E N W P S)], in experiment [1], the “% Inhibition” value came to 74%. With HEPWRS [Compound 289], the binding result in experiment [7] is on record as “binds”.

With FHEQWPS [P30O (F H E Q W P S)], the “% Inhibition” value in experiment [1] is 73%. As to HNEWPS [Compound 288], the binding result in experiment [7] was “binds”.

Consider FH[βAla]NWPS [Compound 340], for which the binding result in experiment [7] is given as “binds”. Regarding FHENWAS [Compound 316], the binding result in experiment [7] is recorded as “binds”. For FAENWPS [Compound 338], the binding result in experiment [7] is reported as “binds”. As for FHENWPA [Compound 349], the binding result in experiment [7] is listed as “binds”. FHEAWPS [Compound 331]: in experiment [1], the “% Inhibition” value was found to be 43%.

As for FHANWPS [Compound 337], the binding result in experiment [7] is on record as “binds”.

B2: Compound 397 (scrambled) (peptide)
peptide: SPWNEHF
notes: Comment 'scrambled'; L-amino acids, reverse order of FHENWPS
As to B2, in experiment [7], the binding result is “binds”.

HENWPS-NH2 [Compound 244]: the binding result in experiment [7] is listed as “binds”.

B3: Compound 290 (peptide)
peptide: HCNWCS
notes: Cys at residues 2 and 5; no disulfide is stated for this compound
As for B3, the binding result in experiment [7] was “binds”.
